Data reported in patent US9322042B2, “Thermostable cellulases, and mutants thereof, capable of hydrolyzing cellulose in ionic liquid” (The Regents of the University of California, priority 2009, dated 2016).

Experiments:
Assay type in all cases: biochemical
[1] = Enzyme stability: overnight pre-incubation in [C2mim][OAc] and half-life; conditions: pre-incubation overnight (15 h) in 15% [C2mim][OAc]
[2] = Activity assay on insoluble substrate: corn stover
From the text: Corn stover refers to stalks, leaves and cobs that remain in the fields after the corn kernel harvest and is the largest quantity of biomass residue in the United States and as such is also a LC-biomass source for producing cellulosic ethanol in the United States. [C2mim][OAc] pretreated corn stover is used as a substrate to verify enzymatic efficiency on IL-pretreated biomass and a comparison made with [C2mim][OAc] pretreated Avicel. Avicel is a commercially available microcrystalline cellulose and a good model substrate for analysis. Similar assays are done in the presence of [C2mim][OAc] to simulate real biomass processing and saccharification scenarios. The assay products for the reactions in the presence of IL are detected by high performance anion exchange chromatography (HPAEC). The enzymatic hydrolysis reaction is carried out for 8 h for the T. viride cellulase and 15 h for the hyperthermophilic enzymes, taking into account the half-lives of these enzymes. To compare the amounts of total sugars formed between different reactions, the sum of glucose, xylose and cellobiose are calculated and reported as mmoles of sugars formed per min per mg of enzyme used (Table 7). A comparison of assay results between pretreated and untreated substrate indicates a 2-6 fold increase in hydrolysis products after pretreatment irrespective of the enzyme used, thereby confirming that IL pretreatment can increase the efficiency of hydrolysis of cellulose recovered from biomass. […] The catalytic efficiency of the fungal enzyme however, decreases with increasing IL concentration in the reaction mix. After normalizing for the reaction time and enzyme amounts, the amount of sugars formed is undetectable at 15% [C2mim][OAc]. […] The yield of sugars from Tma Cel5A hydrolysis of pretreated Avicel in the presence of 15% IL decreases by 43% compared to 0% IL, while the decrease is only 10% in the case of Pho EG on the same substrate under similar conditions (Table 7).
The hydrolysis reactions are performed under pH and temperatures for each enzyme as described herein. The reactions are run over a 14 h period with 5-10 mg of enzyme with 6% (w/v) enzyme loading in optimum buffer for each enzyme and run in duplicate. The reaction products are measured on a HPLC and HPAEC. The amounts of sugars detected are shown in mmoles and normalized with regards to amount of enzyme and time of reaction. Different reactions under each enzyme were run under exactly similar conditions.
(§1) Enzymatic activity is measured on soluble polysaccharide substrates, CMC, using the 3,5-dinitrosalicylic acid (DNS) reducing sugar assay. Briefly, 2% CMC (w/v) in […] acetate buffer, (100 mM, pH 4.5 and pH 4.8 for T. viride and Tma, respectively, and 100 mM MES buffer, pH 6.4 for P. hori EG) is incubated at 80° C. for 30 min for Tma Cel5A and Pho enzymes and 37° C. and 10 min for T. viride. The solution is cooled down to 4° C. and […] of DNS solution is added. The reactants are incubated at 95° C. for 5 min and cooled down to room temperature before the absorbance is read at 540 nm. The reducing sugar concentration in the sample is calculated from its absorbance using the standard curve of D-glucose and cellobiose. For hydrolysis reactions in the presence of [C2mim][OAc], control reactions with CMC in the presence of IL but without no enzyme is subtracted from each measurement. The solid substrate (Avicel and corn stover) hydrolysis reactions are conducted at 80° C. for 15 h for the recombinant enzymes and at 37° C. for 8 h in the case of T. viride cellulose at the optimum pH for each enzyme. The reaction products are monitored using an Agilent 1200 HPLC equipped with Varian 380-LC Evaporative Light Scattering Detector. The total reaction volumes are […] and shaken at 900 rpm at temperature controlled shakers. Enzyme loadings are 0.4 mg per g of glucan and each data point is measured in triplicate. […]

[3] = Enzymatic hydrolysis of CMC (DNS / Azo-CMC reducing sugar assay) in the presence of EMIM Acetate ([C2mim][OAc])
Description: (v/v) were incubated at 37° C. (T. viride), 80° C. (TmaEG, Pho EG). The specific activities were calculated as mmoles of reducing sugars formed per min per mg of enzyme. The specific activities are reported as percentages of residual specific activity, taking the specific activity of IL free enzyme a 100% activity. Error bars indicate the standard deviation.
The enzymetic activity of the cellulases of Trichoderma viride, Thermatoga maritima, and Pyrococcus horikoshii are measured under varying concentrations of EMIM Acetate. […] The enzymes activities are calculated using both the Azo-CMC assay and the DNS assay. […] At 10% EMIM Acetate the % specific activity of T. viride endoglucanase is near 0%, while at 20% EMIM Acetate the % specific activity of T. maritima endoglucanase is nearly 40%.
Enzymatic activity is measured on soluble polysaccharide substrates, CMC, using the dinitrosalicylic acid reducing sugar assay. Briefly, CMC (2% w/v) in […] acetate buffer, (100 mM, pH 4.8) is incubated with enzyme at 80° C. for 30 minutes for Tma and 37° C. and 10 minutes for T. viride. The solution is cooled down to 4° C. and 80 μL of DNS solution is added. The reactants are incubated at 95° C. for 5 minutes and cooled down to room temperature before the absorbance is read at 540 nm. The reducing sugar concentration in the sample is calculated from its absorbance using the standard curve of D-glucose. All experiments are run in triplicate.
The purified recombinant enzymes are assayed in the presence of [C2mim][OAc] and the specific activity results are compared with the cellulase from T. viride. [C2mim][OAc] was selected as the IL of choice. The assays are performed under optimum pH and temperatures for T. maritima and T. viride enzymes. Optimum pH and temperatures for T. maritima Cel5A is pH 4.8 and 80° C., respectively. Optimum pH and temperatures for T. viride cellulase is pH 4.5 and 37° C., respectively. The Pho EG is assayed at 80° C. where its specific activity is around 10% less than at 95° C. […] In the presence of 5% (v/v) [C2mim][OAc] the enzyme loses 60% of its activity while it is undetectable in the presence of 10% (v/v) [C2mim][OAc]. Both the recombinant hyperthermophilic enzymes behave very differently. Tma Cel5A in the presence of 5% [C2mim][OAc] loses 24% of its specific activity. At 15% IL (v/v), Tma Cel5A retains 50% of its specific activity. The highest residual activities are observed with Pho EG which retains 100% activity in 20% IL (v/v) (FIG. 6).
as §1

B1: Tma Cel5A: wild-type cellulase of Thermatoga maritima strain MSB8 (Accession No. NP_229549); SEQ ID NO: 20 (protein, listed as Thermotoga maritima)
chain: MGVDPFERNKILGRGINIGNALEAPNEGDWGVVIKDEFFDIIKEAGFSHVRIPIRWSTHAYAFPPYKIMDRFFKRVDEVINGALKRGLAVVINIHHYEELMNDPEEHKERFLALWKQIADRYKDYPETLFFEILNEPHGNLTPEKWNELLEEALKVIRSIDKKHTIIIGTAEWGGISALEKLSVPKWEKNSIVTIHYYNPFEFTHQGAEWVEGSEKWLGRKWGSPDDQKHLIEEFNFIEEWSKKNKRPIYIGEFGAYRKADLESRIKWTSFVVREMEKRRWSWAYWEFCSGFGVYDTLRKTWNKDLLEALIGGDSIE
[1]
  activity retained after pre-incubation: 44%
[2]; 0% [C2mim][OAc]
  Sugars produced (sum of glucose, cellobiose and xylose): 3 ± 0.9 µmol/min/mg
[2]; 5% [C2mim][OAc]
  Sugars produced (sum of glucose, cellobiose and xylose): 2 ± 0.3 µmol/min/mg
[2]; 10% [C2mim][OAc]
  Sugars produced (sum of glucose, cellobiose and xylose): 2.4 ± 0.8 µmol/min/mg
[2]; 15% [C2mim][OAc]
  Sugars produced (sum of glucose, cellobiose and xylose): 2.3 ± 0.5 µmol/min/mg
[3]
  Optimum pH: 4.8
  Optimum temperature: 80 °C
  tolerance to EMIM Acetate compared to T. viride: more tolerant to EMIM Acetate
  activity in 2.9% EMIM Acetate compared with 0%: at least as active in 2.9% EMIM Acetate as in 0% EMIM Acetate
[3]; 0% EMIM Acetate
  % Specific Activity: 100%
  % Specific Activity (Table 5): 31 ± 2^ %
[3]; listed as T. maritima
  activity in 2.9% EMIM Acetate compared with 0%: remain unchanged
[3]; 5% (v/v) [C2mim][OAc]
  loss of specific activity: 24%
[3]; 5% EMIM Acetate
  % Specific Activity: 77%
  % Specific Activity (Table 5): 24 ± 1^ %
[3]; 10% EMIM Acetate
  % Specific Activity: 65%
  % Specific Activity (Table 5): 20 ± 0.8%
[3]; 15% EMIM Acetate
  % Specific Activity: 50%
  % Specific Activity (Table 5): 15 ± 0.5%
[3]; 20% EMIM Acetate
  % Specific Activity (Table 5): 13 ± 0.9%
[3]; 20% EMIM Acetate, listed as T. maritima endoglucanase
  % Specific Activity: 45%

B2: Pho EG: cellulase of Pyrococcus horikoshii strain OT3 (Accession No. NP_143072); SEQ ID NO: 21 (protein, listed as Pyrococcus horikoshii)
chain: MEGNTILKIVLICTILAGLFGQVVPVYAENTTYQTPTGIYYEVRGDTIYMINVTSGEETPIHLFGVNWFGFETPNHVVHGLWKRNWEDMLLQIKSLGFNAIRLPFCTESVKPGTQPIGIDYSKNPDLRGLDSLQIMEKIIKKAGDLGIFVLLDYHRIGCTHIEPLWYTEDFSEEDFINTWIEVAKRFGKYWNVIGADLKNEPHSVTSPPAAYTDGTGATWGMGNPATDWNLAAERIGKAILKVAPHWLIFVEGTQFTNPKTDSSYKWGYNAWWGGNLMAVKDYPVNLPRNKLVYSPHVYGPDVYNQPYFGPAKGFPDNLPDIWYHHFGYVKLELGYSVVIGEFGGKYGHGGDPRDVIWQNKLVDWMIENKFCDFFYWSWNPDSGDTGGILQDDWTTIWEDKYNNLKRLMDSCSKSSSSTQSVIRSTTPTKSNTSKKICGPAILIILAVFSLLLRRAPR
[1]
  activity retained after pre-incubation: 70%
[2]; 0% [C2mim][OAc]
  Sugars produced (sum of glucose, cellobiose and xylose): 0.58 ± 0.1 µmol/min/mg
[2]; 5% [C2mim][OAc]
  Sugars produced (sum of glucose, cellobiose and xylose): 0.59 ± 0.1 µmol/min/mg
[2]; 10% [C2mim][OAc]
  Sugars produced (sum of glucose, cellobiose and xylose): 0.57 ± 0.1 µmol/min/mg
[2]; 15% [C2mim][OAc]
  Sugars produced (sum of glucose, cellobiose and xylose): 0.59 ± 0.1 µmol/min/mg
[3]
  activity in 2.9% EMIM Acetate compared with 0%: at least as active in 2.9% EMIM Acetate as in 0% EMIM Acetate
[3]; listed as P. horikoshii
  activity in 2.9% EMIM Acetate compared with 0%: remain unchanged
[3]; 20% EMIM Acetate
  % Specific Activity: 100%
[3]; 80° C. vs 95° C.
  specific activity at 80° C. less than at 95° C.: around 10%
